Experimental findings from the RNAGym collection of RNA variant scans (doi:10.7554/elife.80360) are described below.

B1: Twister Ribozyme (parent)
chain: AACACUGCCAAUGCCGGUCCCAAGCCCGGAUAAAAGUGGAGGGGGCGG

The data set covers variants of B1. Nature of the data set: self-cleavage, relative activity (ratio to wild type); higher = more cleavage; co-transcriptional.
Consider AACACUGCCAAUGCCGGUCGCAAGCCCGGAUAAAAGUGGAGAGGGCGG [C20G G42A], for which the self-cleavage turned out to be 0.083. In the case of AACACUGCCAAUGCCGGUCCCAGGCACGGAUAAAAGUGGAGGGGGCGG [A23G C26A], the self-cleavage was 0.0747. Take AACACUGUCAAUCCCGGUCCCAAGCCCGGAUAAAAGUGGAGGGGGCGG [C8U G13C]: the self-cleavage turned out to be 0.121.

For ACCACUGCCAAUGCCGGUCCCAAGCCCGGAUAAGAGUGGAGGGGGCGG [A2C A34G], the self-cleavage came out at 0.0505.

Consider AAUACUGCCAAUGCCGGUCCCAAGCCUGGAUAAAAGUGGAGGGGGCGG [C3U C27U], for which the self-cleavage came to 0.231.

Regarding AACACUGCCAAUGCCGGUCCCAAGCCCGGAUAUAAGCGGAGGGGGCGG [A33U U37C], the self-cleavage worked out at 0.379.

With AACACUGGCAAUGCCGGUCCCAAGCCCGGAUAAAGGUGGAGGGGGCGG [C8G A35G], the self-cleavage worked out at 0.222. In the case of AUCACUGCCAAUGCCGGUCCCAAGCCCGGAUAUAAGUGGAGGGGGCGG [A2U A33U], the self-cleavage worked out at 0.655. In the case of AACAGUGCCAAUGCCGGUGCCAAGCCCGGAUAAAAGUGGAGGGGGCGG [C5G C19G], the self-cleavage came out at 0.125. Consider AACAAUGCCAAUUCCGGUCCCAAGCCCGGAUAAAAGUGGAGGGGGCGG [C5A G13U], for which the self-cleavage is 0.0864. The figure for AACACUUCCAAUGCCGGUCCCAAGCCCGGAUAAAAGUGGAGGGGCCGG [G7U G45C] is 0.118. AACACUGCCAAUGCCGGUCCCAAACCCGGAUAAAACUGGAGGGGGCGG [G24A G36C]: the self-cleavage was 0.12. Regarding AACACUGCCAAUGCCCGUCCCAAUCCCGGAUAAAAGUGGAGGGGGCGG [G16C G24U], the self-cleavage is 0.0773.

For the variant AACACUGCCAAUGCCGGUCCCAAACCCGGAGAAAAGUGGAGGGGGCGG [G24A U31G], the self-cleavage was 0.105. The figure for AACACUGCCAUUGCCGGUCCCAAGCCCGGCUAAAAGUGGAGGGGGCGG [A11U A30C] is 0.862; for AACACUCCCAAUGCCGGUCCCAAGCCCGGAUAAAAGUGGAGGAGGCGG [G7C G43A] it is 0.0617. In the case of AACACUGCCAAUGCCGCUCCCAAGCCCGGAUAAAAGUGGAUGGGGCGG [G17C G41U], the self-cleavage is 0.0841.

Consider AACACUGCCAAUGCCGGUCCCAACCCCGGAUAAAAGCGGAGGGGGCGG [G24C U37C], for which the self-cleavage came to 0.0778. For AAAACUGCCAAUUCCGGUCCCAAGCCCGGAUAAAAGUGGAGGGGGCGG [C3A G13U], the self-cleavage came out at 0.127. Regarding AACAGUGCCAAUGCCGGUCCCAAGCCCGGAUAAAAUUGGAGGGGGCGG [C5G G36U], the self-cleavage was 0.724. For the variant AACACUGCCAAUGCCGGUCCCAAGCCCGCAUAAAAGUGGAGGGGGCCG [G29C G47C], the self-cleavage was 0.222. As to AACACUGCCAAUGCGGGUCCCUAGCCCGGAUAAAAGUGGAGGGGGCGG [C15G A22U], the self-cleavage is 0.0572. UACACUGCCAAUGCCGGUCCCAAGCCCGGAUAUAAGUGGAGGGGGCGG [A1U A33U]: the self-cleavage stood at 0.0603. As for AACACUGCCAAUGCCGAUCCCAAGCCCGGAUAAAAGUGGAGGGGGGGG [G17A C46G], the self-cleavage is 0.592. AACACUGCCAAUGCCGGCCCCAAGCGCGGAUAAAAGUGGAGGGGGCGG [U18C C26G]: the self-cleavage amounted to 0.0519. Consider AACACUGCCAAGGCCGGUCCCAAGCCCGGACAAAAGUGGAGGGGGCGG [U12G U31C], for which the self-cleavage turned out to be 0.907. Regarding AACACUGCCAAUGCCGGUACCAAGCCCGGAUAAAAGUGGAGGGGGCGU [C19A G48U], the self-cleavage worked out at 0.206. On to AACACUGCCAAUGCCGGUCCCAAGCACGGAUAGAAGUGGAGGGGGCGG [C26A A33G], for which the self-cleavage was found to be 0.257. As to AAGACUGCCAAUGCCGGUCCCAAGACCGGAUAAAAGUGGAGGGGGCGG [C3G C25A], the self-cleavage was 0.0782. The figure for AACAGUGCCAAUGCCGGUCCCAAGCCAGGAUAAAAGUGGAGGGGGCGG [C5G C27A] is 0.103; for AACACUGCCAAUGCCGAUCCCAAGCCCGGAUGAAAGUGGAGGGGGCGG [G17A A32G] it is 0.6.

In the case of AACACUGCCAAUGCCGGUCCCAAGCCCGGAUAAAAGUGCAGGGAGCGG [G39C G44A], the self-cleavage came to 0.137.

Turning to AACACUGCCUAUGCCAGUCCCAAGCCCGGAUAAAAGUGGAGGGGGCGG [A10U G16A], the self-cleavage is 0.89. The same measure for AACACUGCAAAAGCCGGUCCCAAGCCCGGAUAAAAGUGGAGGGGGCGG [C9A U12A]: 0.916; for AACACUCCCAAUGCCGGUCCCAAGCCCGGAUAAAAGUGGAGGGGGCUG [G7C G47U]: 0.0642. Take AACACUGUCAAUGCCGGUCCCAAGGCCGGAUAAAAGUGGAGGGGGCGG [C8U C25G]: the self-cleavage came out at 0.1. Consider AACACUGCCAAUGACGGUCCCAAGCCCGGAUAAAAGUGGACGGGGCGG [C14A G41C], for which the self-cleavage was 0.294. On to ACCACUGCCAAUGCCGGUCCCAAGCCCGGAUAAAAGUGGAGGAGGCGG [A2C G43A], for which the self-cleavage turned out to be 0.1. Take AAUACUGCCAGUGCCGGUCCCAAGCCCGGAUAAAAGUGGAGGGGGCGG [C3U A11G]: the self-cleavage came to 0.438. In the case of AACACUGCCAAUGCUGGUCCCAAGCCCGGAUAAAAGUGGGGGGGGCGG [C15U A40G], the self-cleavage stood at 0.162. Take AACACUGCCAAUGCCGGUCCCAAGGACGGAUAAAAGUGGAGGGGGCGG [C25G C26A]: the self-cleavage is 0.0961. For the variant AACACUGCCAAUGCCGGUCCCAAUCCCGGGUAAAAGUGGAGGGGGCGG [G24U A30G], the self-cleavage was determined as 0.111. The same measure for AACAGUGCCAAUGCCGGUCCAAAGCCCGGAUAAAAGUGGAGGGGGCGG [C5G C21A]: 0.0944. The same measure for AACACUGACAAUGCCGGUCCCAAGACCGGAUAAAAGUGGAGGGGGCGG [C8A C25A]: 0.0389; for AACACUGCCAAUGCCGGUCCCAAGCCCAGAUAAAAGGGGAGGGGGCGG [G28A U37G]: 0.331. For AACUCUGCCAAUGCCGGUCCCAAGCCCGGAUAAAAGUGGAGGGGGUGG [A4U C46U], the self-cleavage worked out at 0.125. Turning to AACACUGCCAAUGCCGGUCCCAAGCCCGGUUAAAAGUGGAGGGCGCGG [A30U G44C], the self-cleavage was 0.963. In the case of AACACUGCCAAUGCCGGUCCCAAGCUCGGAUAAAAGUGGAGGGUGCGG [C26U G44U], the self-cleavage was determined as 0.249. On to AACACUGCGAAUGCCGGUCCCAAGCCCGGAUAUAAGUGGAGGGGGCGG [C9G A33U], for which the self-cleavage is 0.689. The figure for AACACUGGCAAUCCCGGUCCCAAGCCCGGAUAAAAGUGGAGGGGGCGG [C8G G13C] is 0.0604. As for AACACUGCCAAUGCCGGUCCCAAGCCCGGCUAAAAGUGGAGGGGGUGG [A30C C46U], the self-cleavage was determined as 0.798. AACACUGCCAAUGCCGGUCCCAAGCCCGCAUAAAAUUGGAGGGGGCGG [G29C G36U]: the self-cleavage stood at 0.106. Regarding AACACUGCCAAUGCCGGUCCCAAGCCCGGAUAAAAUUGCAGGGGGCGG [G36U G39C], the self-cleavage was found to be 0.15. Consider AACACCGCCAAUGCCGGUCCCAAGCCCGGAUAAAAGUGGAGGGGGCGU [U6C G48U], for which the self-cleavage was 0.607.
